T1: FXIIIa (activated coagulation factor XIII) (human, UniProt P00488 39-732)
T1 sequence: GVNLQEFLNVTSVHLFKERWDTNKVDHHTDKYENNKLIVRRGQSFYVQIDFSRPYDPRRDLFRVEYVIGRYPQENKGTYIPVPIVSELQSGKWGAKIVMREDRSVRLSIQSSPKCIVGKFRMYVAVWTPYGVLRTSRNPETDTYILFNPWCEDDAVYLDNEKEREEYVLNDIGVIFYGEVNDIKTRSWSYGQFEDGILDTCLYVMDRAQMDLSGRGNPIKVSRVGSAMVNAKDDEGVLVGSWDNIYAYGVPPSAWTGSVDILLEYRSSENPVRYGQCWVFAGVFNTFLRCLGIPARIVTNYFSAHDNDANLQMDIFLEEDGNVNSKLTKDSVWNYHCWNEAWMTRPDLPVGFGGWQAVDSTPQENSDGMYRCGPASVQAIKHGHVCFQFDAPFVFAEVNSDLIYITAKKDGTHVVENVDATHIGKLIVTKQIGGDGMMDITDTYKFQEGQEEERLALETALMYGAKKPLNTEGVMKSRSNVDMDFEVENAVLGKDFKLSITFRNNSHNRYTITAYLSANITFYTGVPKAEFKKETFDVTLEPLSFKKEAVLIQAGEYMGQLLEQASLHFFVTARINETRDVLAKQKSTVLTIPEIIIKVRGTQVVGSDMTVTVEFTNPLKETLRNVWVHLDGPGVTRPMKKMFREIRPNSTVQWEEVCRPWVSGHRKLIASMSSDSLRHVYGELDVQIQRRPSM


Assays:
[1] = molecular target: activated coagulation factor XIII (FXIIIa), recombinant human (human) (UniProt P00488)
[2] = molecular target: T1, FXIIIa (activated coagulation factor …); assay: BLI; BLI (BLItz, SAX sensors, 3'-biotinylated aptamer 1 µM) in binding buffer, 2200 rpm; buffer composition, pH and temperature not in material; plate capture 30 min; fibrinogen competition 30 min at RT; conditions: protein: recombinant; chain copies: 2; label: 3'-biotin (BLI, capture, fibrinogen assay)
[3] = molecular target: T1, FXIIIa (activated coagulation factor …); assay: competition; competition with immobilized fibrinogen, 25 nM FXIIIa; BLI (BLItz, SAX sensors, 3'-biotinylated aptamer 1 µM) in binding buffer, 2200 rpm; buffer composition, pH and temperature not in material; plate capture 30 min; fibrinogen competition 30 min at RT; conditions: protein: recombinant; chain copies: 2; label: 3'-biotin (BLI, capture, fibrinogen assay)
[4] = molecular target: T1, FXIIIa (activated coagulation factor …); assay: pull-down (aptamer-coated plate, activity read-out); 30 nM FXIIIa; BLI (BLItz, SAX sensors, 3'-biotinylated aptamer 1 µM) in binding buffer, 2200 rpm; buffer composition, pH and temperature not in material; plate capture 30 min; fibrinogen competition 30 min at RT; conditions: protein: recombinant; chain copies: 2; label: 3'-biotin (BLI, capture, fibrinogen assay)
[5] = molecular target: T1, FXIIIa (activated coagulation factor …); assay: competition; competition with immobilized fibrinogen; not affected; BLI (BLItz, SAX sensors, 3'-biotinylated aptamer 1 µM) in binding buffer, 2200 rpm; buffer composition, pH and temperature not in material; plate capture 30 min; fibrinogen competition 30 min at RT; conditions: protein: recombinant; chain copies: 2; label: biotin (capture)

Molecule | inhibition of FXIIIa isopeptidase activity (fluorogenic peptide substrate, 12.8 nM FXIIIa) by tridegin, up to 12 µM [1] | Kd [2] | IC50 [3] | binding signal [4] | binding result [5]
Tridegin (peptide) | 50% | – | – | – | –
FA1 (ssDNA) DNA: AAGCAGTGGTAAGTAGGTTGACCATCCGCCGATTAGGCAATCACGTGGCTTAGGCACCGTATCTCTTCGAGCAATCCACAC | – | 50.4 nM | 89.5 nM | – | –
FA2 (ssDNA) DNA: AAGCAGTGGTAAGTAGGTTGAGCTTTCATCACCCGTCGGTTAGACTAAGTCTCCAGCATCCTCTCTTCGAGCAATCCACAC | – | 79.1 nM | 39.3 nM | – | –
FA3 (ssDNA) DNA: AAGCAGTGGTAAGTAGGTTGACCATCGTAGTTCGTACACCAGTCCATTCTAGGACTCACAATCTCTTCGAGCAATCCACAC | – | 92.9 nM | 66.2 nM | ~5 % captured | –
FA6 (ssDNA) DNA: AAGCAGTGGTAAGTAGGTTGACGCTGCGGGCATCACGTAAGTTAATATATCACTCGGCTATTCTCTTCGAGCAATCCACAC | – | 93.5 nM | 57 nM | ~5 % captured | –
FA8 (ssDNA) DNA: AAGCAGTGGTAAGTAGGTTGATCATCATGTTATTTTTGTTCCATCACGCCAGTTCTGGTTCTCTCTTCGAGCAATCCACAC | – | 79.1 nM | 136 nM | – | –
FA12 (ssDNA) DNA: AAGCAGTGGTAAGTAGGTTGATCATCCTCTTTAAGTCATCACTTTAGTTTCTCCATCTACATCTCTTCGAGCAATCCACAC | – | 51.8 nM | 38 nM | 10 % captured | –
TACTGTCACGAGGATATAGCACATTAGTTCAGATACGATTGTTACTGTCA (ssDNA) [negative control oligonucleotide] | – | – | – | – | no binding

Reference: article PMC7916480, “Functional and Structural Characterization of Nucleic Acid Ligands That Bind to Activated Coagulation Factor XIII”
